From patent US20210283212A1 (RA PHARMACEUTICALS, published 2021)
Starred links: 1 amine or outer side, 2 acyl side, 3 side chain; linkers in the order of their positions; H or OH if unused. Positions of bridges follow the written chain, without caps; N, C: chain ends. Non-standard residues stand in square brackets, D forms with d. Primed or numbered codes have the meaning given here. No end group written: not given here. *: point of attachment. mXylyl(3) = bridging moiety between the two residues given in brackets; m‑xylyl = bridging moiety between the two residues given in brackets; Phe(3-CH2NH2) = O=C([C@H](Cc1cccc(CN[*:3])c1)N[*:1])[*:2]; Trp(7-aza) = N[C@@H](Cc1c[nH]c2ncccc12)C(=O)O; 2Nal = N[C@@H](Cc1ccc2ccccc2c1)C(=O)O; Palmitoyl = CCCCCCCCCCCCCCCC(=O)*; hPhe = N[C@@H](CCc1ccccc1)C(=O)O; NMeD = CN[C@@H](CC(=O)O)C(=O)O; Chg = N[C@H](C(=O)O)C1CCCCC1; Phg = N[C@H](C(=O)O)c1ccccc1; Tle = CC(C)(C)[C@H](N)C(=O)O; NMeS = CN[C@@H](CO)C(=O)O; Ac5c = NC1(C(=O)O)CCCC1; Nva = CCC[C@H](N)C(=O)O; Thp = NC1(C(=O)O)CCOCC1; Aib = CC(C)(N)C(=O)O

B1: R3192 (peptide)
peptide: Ac-KVERFD[NMeD][Tle]Y[Trp(7-aza)]EYP[Chg]K-NH2
modifications: lactam 1-6
SMILES: CC(=O)N[C@H]1CCCCNC(=O)C[C@@H](C(=O)N(C)[C@@H](CC(=O)O)C(=O)N[C@H](C(=O)N[C@@H](Cc2ccc(O)cc2)C(=O)N[C@@H](Cc2c[nH]c3ncccc23)C(=O)N[C@@H](CCC(=O)O)C(=O)N[C@@H](Cc2ccc(O)cc2)C(=O)N2CCC[C@H]2C(=O)N[C@H](C(=O)N[C@@H](CCCCN)C(N)=O)C2CCCCC2)C(C)(C)C)NC(=O)[C@H](Cc2ccccc2)NC(=O)[C@H](CCCNC(=N)N)NC(=O)[C@H](CCC(=O)O)NC(=O)[C@H](C(C)C)NC1=O

target: T1, human C5 protein (human, UniProt P01031 19-673; P01031 678-1676); test: cell-based or functional assay

Ac-[Nva]C[Phg]T[Trp(7-aza)]E[hPhe][NMeS]AC[Nva]-NH2 (linker 2-10 via mXylyl(3)) [R3095] and Ac-[Nva]C[Phg][Aib][Trp(7-aza)]EY[NMeS]HC[Nva]-NH2 (linker 2-10 via mXylyl(3)) [R3096] cannot be ordered by “Avg. IC50, human hemolysis assay” value: greater than 50000 nM for the first, greater than 50000 nM for the second.

Ac-[Nva]C[Phg]T[Trp(7-aza)]DY[NMeS]AC[Nva]-NH2 (linker 2-10 via mXylyl(3)) [R3097] and Ac-[Nva]C[Phg]T[Trp(7-aza)]QY[NMeS]AC[Nva]-NH2 (linker 2-10 via mXylyl(3)) [R3098] cannot be ordered by “Avg. IC50, human hemolysis assay” value: greater than 100000 nM for the first, greater than 100000 nM for the second.

Compared with Ac-[Nva]C[Phg]T[Trp(7-aza)]NY[NMeS]AC[Nva]-NH2 (linker 2-10 via mXylyl(3)) [R3099], Ac-[Nva]C[Phg]T[Trp(7-aza)]EF[NMeS]AC[Nva]-NH2 (linker 2-10 via mXylyl(3)) [R3100] is lower in “Avg. IC50, human hemolysis assay” value: greater than 100000 nM for the first, 626 nM for the second.

target: T1, human C5 protein; test: cell-based or functional assay; remark: another data set of the same source

First: Ac-CVERFCD[Tle]Y[Trp(7-aza)]EWP[Chg][Nva] (linker 1-6 via m‑xylyl) [R3177]
Second: Ac-CVERFCD[Tle]Y[Trp(7-aza)]E[(m-Cl-homo)Phe]P[Chg][Nva] (linker 1-6 via m‑xylyl) [R3179]
The “Avg. IC50, hemolysis assay with C5 depleted sera” value (“Avg. IC50, hemolysis assay” below) of the first is 6.9-fold lower: 12 nM for the first, 83 nM for the second.

Going from Ac-CVERFCD[Tle]Y[Trp(7-aza)]E[2Nal]P[Chg][Nva] (linker 1-6 via m‑xylyl) [R3180] to Ac-CVERFCD[Tle]Y[Phe(3-CH2NH2)]EYP[Chg][Nva] (linker 1-6 via m‑xylyl) [R3181], the “Avg. IC50, hemolysis assay” value rises from 29 nM to 1500 nM (52-fold).

Going from VERFCD[Tle]Y[Trp(7-aza)]EYP[Chg][Nva] (thioether 1-5) [R3184] to Ac-CVERFC[Ac5c][Tle]Y[Trp(7-aza)]EYP[Chg][Nva] (linker 1-6 via m‑xylyl) [R3185], the “Avg. IC50, hemolysis assay” value rises from 4 nM to 12.5 nM (3.1-fold).

First: Ac-CVERFC[Thp][Tle]Y[Trp(7-aza)]EYP[Chg][Nva] (linker 1-6 via mXylyl(3)) [R3186]
Second: Ac-CAERFCD[Tle]Y[Trp(7-aza)]EYP[Phg]K(Palmitoyl) (linker 1-6 via m‑xylyl) [R3189]
The “Avg. IC50, hemolysis assay” value of the first is 4.5-fold lower: 18 nM for the first, 81.5 nM for the second.

B1 was tested, and the “Avg. IC50, hemolysis assay” value was 1.5 nM.
